Data on nine molecules can be found in patent publication US20130115227A1 (Merck Sharp & Dohme, published 2013).

Assay [1] concerns the target T1, amyloid β (Aβ)-derived diffusible ligands (ADDLs) (UniProt P05067 672-713).
T1 construct: domain: Aβ1-42; Soluble oligomers of Aβ1-42, with the number of chains per oligomer not fixed; They were prepared from HFIP film in DMSO/F12 and enriched on a 50 kDa filter; The result sentences say 'ADDLs'; also called ADDL oligomers; soluble …
Description: ELISA, plate coated with ADDLs (50 pmol/well), anti-human IgG-alkaline phosphatase, luminescence; antibody kept one month at 4 °C. On the procedure:
(§1) The codon AAT for N was mutated to AGT for S in 19.3S33 (SEQ ID NO: 55), ACT for T in 19.3T33 (SEQ ID NO: 56), GAA for E in 19.3E33 (SEQ ID NO: 67), or GAT for D in 19.3D33 (SEQ ID NO: 68), and the new condons in that position were confirmed by DNA sequencing. […] The expression and purification methods were described above in this example.
(§2) Determination of EC50. High protein binding plates (Costar, Corning, Lowell, Mass.), were coated with target ligand in PBS overnight at 4° C. The concentration of coating protein was 100 pmol/well for Aβ40 (American Peptide, Sunnyvale, Calif.) and 50 pmol/well for ADDLs. ADDLs were generated as described in Example 1B. Next day, plates were washed five times with PBS+0.05% Tween-20 (Sigma Aldrich, St. Louis, Mo.) and blocked overnight with Casein blocking buffer (ThermoScientific, Waltham, Mass.) and 0.05% Tween-20. […] After 2 hours at room temperature incubation, the plates were washed and alkaline phosphatase conjugated anti-human IgG (ThermoScientific, Waltham, Mass.) was added at 0.08 μg/ml. After 45 minutes at room temperature incubation, the plates were washed and Tropix® CDP®-Star chemiluminescent substrate (Life Technologies™, Carlsbad, Calif.) was added. Luminescence was detected after 30 minutes on an EnVision® microplate reader (PerkinElmer, Waltham, Mass.).

The target of assay [2] is T1, amyloid β (Aβ)-derived diffusible …. Description: ELISA, plate coated with ADDLs (50 pmol/well), anti-human IgG-alkaline phosphatase, luminescence; antibody kept one month at 25 °C. Here is the method:
as §1, §2

The target is the same in assay [3]. Description: ELISA, plate coated with ADDLs (50 pmol/well), anti-human IgG-alkaline phosphatase, luminescence; antibody kept one month at 40 °C. On the procedure: as §1, §2
For assay [4] the target is unchanged. Description: ELISA, plate coated with ADDLs (50 pmol/well), anti-human IgG-alkaline phosphatase, luminescence; antibody not stored (0 timepoint). Here is the method:
as §2, with “Mass.). Curve fits were completed using GraphPad Prism (GraphPad Software, Inc., San Diego, Calif.) software.” for “Mass.).”
(In general: In an ELISA, binding on a coated surface is turned into a signal by an enzyme label.)

Assay [5] shares this target. Description: phage/Fab ELISA on ADDLs, anti-M13-HRP detection. On the procedure:
Biotinylated ADDLs (bADDLs) or monomer Aβ1-40 or Aβ1-42 was added to a high-capacity streptavidin-coated plate (Sigma-Aldrich, St. Louis, Mo.) with 100 μL per well of coating reagent in PBS at 1 μM and incubated for two hours at room temperature. The plates were washed in PBS with 0.05% Tween (six times) and then PBS alone (three times) prior to blocking wells with 5% non-fat dry milk in PBS for one hour at room temperature. The wells were then washed and a serial dilution of antibody samples added to the plates and allowed to bind for two hours at room temperature. After incubation and washing, the antibody binding was detected with a goat anti-human IgG-Fc secondary antibody conjugated to horse radish peroxidase (HRP) (1:1,000; one hour at room temperature). The HRP label was visualized with tetramethyl benzidine (Virolabs, Chantilly, Va.) as a substrate and read at 450 nm on a microplate reader.
After each round of panning, single colonies were randomly picked to produce phage in 96-well plates. The procedures for phage preparation in 96-well plate were similar to that described above except no phage precipitation step was used. Culture plates containing colonies growing in 120 μL of 2×TY medium with 100 μg/ml ampicillin and 0.1% glucose were incubated overnight in a HiGro® shaker (Genomic Solutions, Ann Arbor, Mich.) at 30° C. with shaking at 450 rpm. The phage supernatants (about 100 μL) were directly used for analysis in the ADDL binding ELISA described above. One difference is that the binding of phage to ADDLs was detected with an anti-M13-antibody conjugated to HRP (Amersham Bioscience, GE Healthcare, Waukesha, Wis.).

Assay [6] has the same target. Description: ELISA, plate coated with ADDLs (50 pmol/well), 12 point antibody titration, anti-human IgG-alkaline phosphatase, luminescence. Here is the method: as §2, with “Mass.). Curve fits were completed using GraphPad Prism (GraphPad Software, Inc., San Diego, Calif.) software.” for “Mass.).”
The target is the same in assay [7]. Description: Biacore (SPR); affinity for Aβ1-40 monomer over affinity for ADDLs. Background: In SPR one partner is held on a chip, and binding of the other changes the refractive index at the surface.
Assay [8] shares this target. Description: KinExA, equilibrium constant in solution. In general terms: A kinetic exclusion assay measures how much of one partner remains free in solution.
The target is the same in assay [9]. Description: Biacore (SPR).
Assay [10] has the same target. Description: KinExA; constant for Aβ1-40 monomer over constant for ADDLs.

T1 sequence (P05067 672-713 limits assumed): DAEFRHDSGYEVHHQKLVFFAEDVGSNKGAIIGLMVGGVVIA

B1: anti-ADDL antibody 19.3 (antibody, human IgG2, kappa, V domains shown)
VH: EVQLVESGGGLVQPGGSLRLSCAASGFTFSSFGMHWVRQAPGKGLEWVAYISRGSSTIYYADTVKGRFTISRDNAKNSLYLQMNSLRAEDTAVYYCARGITTALDYWGQGTLVTVSS
VL: DVVMTQSPLSLPVTPGEPASISCRSSQSIVHSNGNTYLEWYLQKPGQSPQLLIYKASNRFSGVPDRFSGSGSGTDFTLKISRVEAEDVGVYYCFQGSRLGPSFGQGTKLEIKR
notes: The same paragraph also says all VH were cloned into an IgG1 expression vector; copies: 2 + 2
The EC50 (read off the curve) is the midpoint of the concentration-response curve. Read a low EC50 (read off the curve) as higher potency in that assay. With B1, the “EC50 (read off the curve)” value in assay [1] was around 2 nM; in [2], around 2 nM; in assay [3], around 6 nM; in [4], around 1 nM.

B2: Fab clone 14.2 (phage-displayed) (Fab, V domains shown)
VH: EVQLVESGGGLVQPGGSLRLSCAASGFTFSSFGMHWVRQAPGKGLEWVAYISRGSSTIYYADTVKGRFTISRDNAKNSLYLQMNSLRAEDTAVYYCARGITTALDYWGQGTLVTVSS
VL: DVVMTQSPLSLPVTPGEPASISCRSSQSIVHSNGNTYLEWYLQKPGQSPQLLIYKASNRFSGVPDRFSGSGSGTDFTLKISRVEAEDVGVYYCFQGSRVPPGFGQGTKLEIK
notes: VH is deduced from the parental VH being kept in the library
In the case of B2, the binding result in [5] is reported as “binds”.

B3: Fab clone 9.2 (phage-displayed) (Fab, V domains shown)
VH: EVQLVESGGGLVQPGGSLRLSCAASGFTFSSFGMHWVRQAPGKGLEWVAYISRGSSTIYYADTVKGRFTISRDNAKNSLYLQMNSLRAEDTAVYYCARGITTALDYWGQGTLVTVSS
VL: DVVMTQSPLSLPVTPGEPASISCRSSQSIVHSNGNTYLEWYLQKPGQSPQLLIYKASNRFSGVPDRFSGSGSGTDFTLKISRVEAEDVGVYYCFQGSRAPPFFGQGTKLEIK
notes: as for B2
Turning to B3, the binding result in [5] is reported as “binds”.

B4: anti-ADDL antibody 19.3T33 (antibody, V domains shown)
VH: EVQLVESGGGLVQPGGSLRLSCAASGFTFSSFGMHWVRQAPGKGLEWVAYISRGSSTIYYADTVKGRFTISRDNAKNSLYLQMNSLRAEDTAVYYCARGITTALDYWGQGTLVTVSS
VL: DVVMTQSPLSLPVTPGEPASISCRSSQSIVHSTGNTYLEWYLQKPGQSPQLLIYKASNRFSGVPDRFSGSGSGTDFTLKISRVEAEDVGVYYCFQGSRLGPSFGQGTKLEIKR
For the molecule B4, in assay [6], the binding result is listed as “binds”.

B5: Fab clone 13.1 (phage-displayed) (Fab, V domains shown)
VH: EVQLVESGGGLVQPGGSLRLSCAASGFTFSSFGMHWVRQAPGKGLEWVAYISRGSSTIYYADTVKGRFTISRDNAKNSLYLQMNSLRAEDTAVYYCARGITTALDYWGQGTLVTVSS
VL: DVVMTQSPLSLPVTPGEPASISCRSSQSIVHSNGNTYLEWYLQKPGQSPQLLIYKASNRFSGVPDRFSGSGSGTDFTLKISRVEAEDVGVYYCFQGSKAHPSFGQGTKLEIK
notes: as for B2
Take B5: the binding result in assay [5] is on record as “binds”.

B6: Fab clone 7.2 (phage-displayed) (Fab, V domains shown)
VH: EVQLVESGGGLVQPGGSLRLSCAASGFTFSSFGMHWVRQAPGKGLEWVAYISRGSSTIYYADTVKGRFTISRDNAKNSLYLQMNSLRAEDTAVYYCARGITTALDYWGQGTLVTVSS
VL: DVVMTQSPLSLPVTPGEPASISCRSSQSIVHSNGNTYLEWYLQKPGQSPQLLIYKASNRFSGVPDRFSGSGSGTDFTLKISRVEAEDVGVYYCFQGSYAPPGFGQGTKLEIK
notes: as for B2
As for B6, in [5], the binding result is reported as “binds”.

B7: humanized anti-ADDL antibody h3B3 (antibody, V domains shown)
VH: EVQLVESGGGLVQPGGSLRLSCAASGFTFSSFGMHWVRQAPGKGLEWVAYISRGSSTIYYADTVKGRFTISRDNAKNSLYLQMNSLRAEDTAVYYCARGITTALDYWGQGTLVTVSS
VL: DVVMTQSPLSLPVTPGEPASISCRSSQSIVHSNGNTYLEWYLQKPGQSPQLLIYKASNRFSGVPDRFSGSGSGTDFTLKISRVEAEDVGVYYCFQGSHVPPTFGQGTKLEIK
notes: Parental antibody; also called humanized 3B3; h3B3 (parental)
Broadly, the Kd is a measure of binding affinity in units of concentration. Read a high Kd as a looser complex. On to B7, for which the “Ratio (Aβ monomer/ADDL)” value worked out at 10 in assay [7] and 13.6 in assay [10]. Besides, the Kd in assay [8] worked out at 3.3 nM; in [9], 10 nM.

B8: Fab clone 11.4 (phage-displayed) (Fab, V domains shown)
VH: EVQLVESGGGLVQPGGSLRLSCAASGFTFSSFGMHWVRQAPGKGLEWVAYISRGSSTIYYADTVKGRFTISRDNAKNSLYLQMNSLRAEDTAVYYCARGITTALDYWGQGTLVTVSS
VL: DVVMTQSPLSLPVTPGEPASISCRSSQSIVHSNGNTYLEWYLQKPGQSPQLLIYKASNRFSGVPDRFSGSGSGTDFTLKISRVEAEDVGVYYCFQGSRVPVRFGQGTKLEIK
notes: as for B2
B8: in assay [5], the binding result is on record as “binds”.

B9: anti-ADDL antibody 19.3S33 (antibody, V domains shown)
VH: EVQLVESGGGLVQPGGSLRLSCAASGFTFSSFGMHWVRQAPGKGLEWVAYISRGSSTIYYADTVKGRFTISRDNAKNSLYLQMNSLRAEDTAVYYCARGITTALDYWGQGTLVTVSS
VL: DVVMTQSPLSLPVTPGEPASISCRSSQSIVHSSGNTYLEWYLQKPGQSPQLLIYKASNRFSGVPDRFSGSGSGTDFTLKISRVEAEDVGVYYCFQGSRLGPSFGQGTKLEIKR
Regarding B9, in [6], the binding result is listed as “binds”.
